Here are results for two proteins from PMC1088972, “Engineering a Dimeric Caspase-9: A Re-evaluation of the Induced Proximity Model for Caspase Activation” (PLoS Biology, 2005).

In general, stoichiometry N refers to a count of units in the complex or per binding partner.

Positions count from the first letter of the chain named. Numbers in names are those of the source.

Data set [1] deals with the molecule itself. Kind of data set: SEC; gel filtration of WT and engineered caspase-9 (Δ139, residues 140-416); unpublished data.
Data set [2] deals with the molecule itself. Kind of data set: crystal structure; hanging-drop vapor diffusion, 100 mM MES pH 6.0, 5% PEG 5000 monomethyl ether, 3% tacsimate; space group C2; two molecules of the dimer in the asymmetric unit; molecular replacement.

B1: engineered (dimeric) caspase-9 (Δ139, residues 140-416) (domain or fragment, UniProt P55211 140-416, looked up)
chain: GALESLRGNADLAYILSMEPCGHCLIINNVNFCRESGLRTRTGSNIDCEKLRRRFSSLHFMVEVKGDLTAKKMVLALLELAQQDHGALDCCVVVILSHGCQASHLQFPGAVYGTDGCPVSVEKIVNIFNGTSCPSLGGKPKLFFIQACGGEQKDHGFEVASTSPEDESPGSNPEPDATPFQEGLRTFDQLDAISSLPTPSDIFVSYSTFPGFVSWRDPKSGSWYVETLDDIFEQWAHSEDLQSLLLRVANAVSVKGIYKQMPCIVSMLRKKLFFKTS
notes: caspase-9, residues 140-416; prodomain and flexible linker removed; five residues of strand beta6 replaced by those of caspase-3 (Cys264-Ile-Val-Ser-Met268); Predicted dimer mass printed as 62,746 Da; written as one chain; also called engineered caspase-9 (Δ139); Δ139 dimeric caspase-9; source: E. coli BL21(DE3), vector pET-21b, purified (Ni-NTA, anion exchange Source-15Q, gel filtration …)
With B1, the “stoichiometry N” value in data set [1] was found to be 2.

B2: dimeric caspase-9 (residues 140-416, C287S) (domain or fragment, UniProt P55211 140-416, looked up)
chain: B1 chain with C148S
notes: caspase-9, residues 140-416; five residues of strand beta6 replaced by those of caspase-3; catalytic Cys287 mutated to Ser; Crystallised form; the model holds residues 140-288 and 335-416 (chains A, C) and 140-289 and 337-416 (chains B, D); also called dimeric caspase-9 (C287S); source: E. coli BL21(DE3), vector pET-21b, purified (Ni-NTA, anion exchange Source-15Q, gel filtration Superdex-200)
Take B2: the binding result in data set [2] was “binds”.
